# Reference: the nanobody polyreactivity screen of Harvey et al. (2022)
# Assay: yeast display, Sf9 membrane polyspecificity reagent, FACS + sequencing; frameworks hold sequencing errors
# In short: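 Nanobodies from a synthetic yeast display library (Saccharomyces cerevisiae BJ5465), induced 36–48 hours with galactose, were stained 1 hour at 4 °C with 10% biotinylated, detergent-solubilized Sf9 membrane reagent, enriched on streptavidin microbeads, then FACS-sorted. Anti-HA (expression) and streptavidin (reagent binding) fluorescence set low and high (top ~1%) gates. Polyreactivity labels come from the gate of origin. Genes were colony-PCR amplified, MiSeq 2 × 250 sequenced and filtered by CDR length.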
sequence,measurement,value
QVQLVESGGGLVQAGGSLRLSCAASGSIFRLYAMGWYRQAPGKERELVAAITGRGTSTYYADSVKGRFTISRDNAKNTVYLQMNSLKPEDTAVYYCAARLFKNSGTTYDRYGYWGQGTQVTVSS,polyreactivity (PSR sort gate),high polyreactivity
QVQLVESGGGLVQAGGSLRLSCADSGSTFRIFAMGWYRQAPGKERELVAAITGGGTHYADSVKGRFTISRDNAKNTVYLQMNSLTPEDTAVYYCAANRSKLYRYAMGYWGQGTQVTVSS,polyreactivity (PSR sort gate),high polyreactivity
QVQLVESGGGLVQAGGSLRLSCAASGFIFLAYTMGWYRPAPGKERELVAAISTSGGSTYYADSVKGRFTISRDNAKNTVYLQMNILKPEDTAVYYCAARYRWGRYDYWGQGTQVTVSS,polyreactivity (PSR sort gate),high polyreactivity
QVQLVESGGGLVQAGGSLRLSCAASGSIFLLYARGWYRQAPGKERELVAAISRGGSTYYADSVKGRFTISRDNAKNTVYLQMNSLKPEDTAVYYCAAKLYYGYDWGQGTQVTVSS,polyreactivity (PSR sort gate),low polyreactivity
QVQLVESGGGLVQEGGSLRLSCAASGNIFRINGMGWYRQAPGKERELVATITGNGGSTYYAASVKGRFTISRDNAQNTVYLQMNSLKPEDTAVFYCAAQTTVYIYDYWGQGTQVTVSS,polyreactivity (PSR sort gate),low polyreactivity
QVQLVESVGGLVQAGGSLRLSCAASYAMAWYRQAPGKERELVATITRTDRTNYADSVKGRFTISRDNAMNTVYFQMNSLKPEDTAVYDCNKVEWSAPGDSRKYGYWGQGTQVTVSS,polyreactivity (PSR sort gate),low polyreactivity
QVQLVESGRGLVQAGGSLRLSCAASGGTFYIYAMGWYRQAPGKERELVAVISISDASTYYADSVKGRFTFSRDNAKNTVYLQMNSLKPEDTAVYYCNAKSNPAGSYPSEHSGYDSWGQGTQVTVSS,polyreactivity (PSR sort gate),low polyreactivity
QVQVVESGGGLVQAGGSLRLSCAASGRTFRKNAMGWYRQAPGKERELVAAISSGGGSTYYADSVKGRFTISRDNAKNSDYLQINSLKPEDTAVYYCAVLVWYYDGYYSSYDYWGQGTQVTVSS,polyreactivity (PSR sort gate),high polyreactivity
QVQLVESGGGLVQAGGSLRLSCAASGRIFEIYAMGWYRQAPGTERELVAPISWRGVSTYYADSVKGRFTISRDNAKNTVYVQMNSLKAEDTAVYYCGPELGWGGFYKDGDASQFDYWGQGTQVTVSS,polyreactivity (PSR sort gate),low polyreactivity
QVQLVESGGGLVQAGGSLRLSCAASGSTFGINAMGWYRQAPGKERELVARISTGVRTYYADSVKGRFTISRDNAKNTVYLQMNSLKPEDTAVYYCAAVYYRGVDRAILSYRYYYWGQGTQVTVSS,polyreactivity (PSR sort gate),high polyreactivity
QVQLVESGGVLVQAGGSLRLSCAASGSIFYVNAMGWYRQAPGKERELVATITTDGSTNYADSVKGRFTISRDNAKNTVYLPMNSLKPEDTAVYYCAAERWLATPTVPWYLYNYWGQGTQVTVSS,polyreactivity (PSR sort gate),low polyreactivity
QVQLVESGGRLVQAGGSRRLSCAGSGSIFHHNAMGSYRQAPGKESELVAAISSRSGNTYYADSVKGRFTISRDNAKNTVYLQMNSLKPEDPAVYYCAAGIRLSYSTYDSWGQGTQVTVSS,polyreactivity (PSR sort gate),high polyreactivity
QVQLVESGGGLVQAGGSLRLSCAASGSIFWWYGMGWYRQAPGKEREFVADITSGGGTYYADSVKGRFTISRDNAKNTVYLQMNSLKPEDTAVYYCAADVRAYRFDYYFDYWGQGTQVTVSS,polyreactivity (PSR sort gate),low polyreactivity
QVQLVESGGGLVQAGGSLRLSCAASGRTFGKYAMGWYIQAPGKEREFVAAISRSGGNTYYADSVKGRFTISRDNAKNTVYLQMNSLKPEDTAVYYCARGLSTYVLSHGLEYRTYYYWGQGTQVTVTS,polyreactivity (PSR sort gate),high polyreactivity
QVQLVESGGGLVQAGGSLRLSCAASGRTFIYYAMGWYRQAPGKERELVAAITYSGTSTYYADAVKGRFTISRDNAKNTVYLQMNSLKPEDTAVYYCAKDGQRDAKYNWGQGTQVTVSS,polyreactivity (PSR sort gate),low polyreactivity
QVQLVESGGGLVQAGGSLRLSCAASGRTFGWYTMGWYRQAPGKEREFVAAISSSDTSTYYADSVKGRFTISRDNAKNTVYLQMNSLKPEDTAVYYCAADPPSWRWFVGYSYDYWGQGTQVTVSS,polyreactivity (PSR sort gate),low polyreactivity
QVQLVESGGGLVQAGGSLRLSCAASGRIFPVNTMGWYREAPGKERELVAAITSGGGTYYADSVKGRFTISRDNAKNTVYLQMNSLKPEDTAVYYCNAPEGRKPYDSWGQGTQVTVSS,polyreactivity (PSR sort gate),low polyreactivity
QVQLVESGGGLVQAGGSLRLSCAASGFIFGRYAMGWYRQAPGKERELVAAISRSGGSTHYADSVKGRFTISRDNAKNTVYLQMNSLKQVDTAVYYCNTYLTIWGYFYGYDYWGQGTQVTVSS,polyreactivity (PSR sort gate),high polyreactivity
QDQLVESGGGLVQAGGSHRLSCAASGFIIGYYAMGWYRQAPGKEMELVASIRRGGSTYYADSVKGRFTISRDNAKNTVYLQMNSLKPEDTAVYYCAAQRSVVGWWSRTSLYGDSDYWGLGTQVTVSS,polyreactivity (PSR sort gate),high polyreactivity
QVQLVESGGGLVQAGGSLRLSCAASGSTFGAYAMGWYRQAPGKEREFVAGISVRGGSTYYADSVKGRFTISRDNAKNTVYLQMNSLKPEDTAVYYCAARRVDTRFHVRYRYYYWGQGTQVTVSS,polyreactivity (PSR sort gate),high polyreactivity
QVQLVESGGGLVQAGGSLRLCCAASGITFNYYTMGWYRQAAGNERELVAAIRSGGRTYYADSVKGRFTISRDNAKNTVYLQMNSLKPEDTAVYYGAALAVTYPYDYWGQGTQVTVSS,polyreactivity (PSR sort gate),high polyreactivity
QVQLVESGGGLVQAGGRLRLSCAASGRIFFYYAMGWYRQAPGKERELVAAITSGGNTNYADSVKGRFTISRDNAKNTVYLQMNSLKPEDTAVYYCNKDLYADGQYNYDYWGQGTQVTVSS,polyreactivity (PSR sort gate),low polyreactivity
QDQLVESVGGLDQAGGSLRLSCAASGLIFQSYVMGWYRQAPGKERELVAAISSSVGSTHYADSVKGRFTISRDNAKNTVYLQMNSLKPEDTAVYYCAVEDYYADSGVEYDYWGQGTQVTVSS,polyreactivity (PSR sort gate),low polyreactivity
QVQLVESGGGLVQAGGSLRLSCAASGRIFRANAMGWYRQAPGKERELVAAISYRGGSTYYADSVKGRFTISRDNAKNTVYLQMNSLKPEDTAVYYCAADSDRSVWIYGYWGQGTQVTVSS,polyreactivity (PSR sort gate),low polyreactivity
QVQLVESGGGLVQAGGSLRLSCAASGRTFGVNAMGGYRQAPGKERELVAAISKRGGSTYYADSVKGRFTISRDNAKNTVYLQMNSLKPEDTAVYYCAKDQPHRGPMDYWGQGTQVTVSS,polyreactivity (PSR sort gate),high polyreactivity
QVQRVESGGGLVQAGGSLRLSCAASGSTFPRNAMGWYRQAPGKEREFVAAISYSGGRTYYADSVKGRFTISRDNAKNTVYLQMNSLKPEDTAVYYCAAQPYSHVRGKSYGYWGQGTQVTVSS,polyreactivity (PSR sort gate),high polyreactivity
QVQLVESGGGLVQAGCSLRLICAASGIIFRRYAMGWYRQAPGKERELVAAISSSGGSTYYADSVKGRFTISRDNAKNTVYLQMNSLKPEDTAVYYCNAVTSVQARPRNYYYWGQGTQVTVSS,polyreactivity (PSR sort gate),high polyreactivity
QVQLVESGGGLVQAGGILRLSCAASGSTFYYNTMGWYRQAPGKERELVAAISWSGGSTYYADSVKGRFTISRDNAKTTVYLQINSLKPEDTAVYYSNKLRHISRTLYGYWGQGTQVTVSS,polyreactivity (PSR sort gate),high polyreactivity
QVQLVESGGGLVQAGGSLRLICAASGSTFPRNAMGWYRQAPGKERELVATITSSGGGTYYADSVKGRFTISRDNAMNTVYLQMNSLKPEDTAVYYCNADGPAGDAFDYWGQGTQVTVSS,polyreactivity (PSR sort gate),low polyreactivity
QVQLQESGGGLVQVGGSQRLSCAASGNIFFNYAMGWYRHAQGKEREFDASINHGTSINYEDSVKGRFTISRDNAKNTVYLQMNSLKPEDTAVYYCAADLSWTDNLFYWGQGTQVTVSS,polyreactivity (PSR sort gate),low polyreactivity
QVQLVESGGGLVQAGGSLRLSCAASGSTFYRNAMGWYRQAPGKEREFVAAISFRGGGTYADSVKGRFTISRDNAKNTVYLQMNSLIPEDTAVYYCAADHLSYRRRYEYWGQGTQVTVSS,polyreactivity (PSR sort gate),low polyreactivity
QVQLVESGGGLVQAGGTLRLICAASGSIFGYYTMGWYRQASGKERELVAAITSGGSTNYADSVKGRFTISRDNAKNTVYLQMNSLKPEDTAVYYCATVSYYPWRYDYWGQGTQGTVSS,polyreactivity (PSR sort gate),low polyreactivity
QVQHEESGGGLVQAGGSLRLSSAASGSTFVDYDMGCYRQAPGKVRELVAGITTGGSTNYADSVKGRFTISRDNALNTVYLQLKRLKPEDTAVYYCNSDSYTNLVPDYLYYWYEYWGQGTQVTVSS,polyreactivity (PSR sort gate),low polyreactivity
QVQLVESGGGLVQAGGSLRLSCAASGFIFTLYAMGWYRQAPGKERELVASIRGSGGNTYYADSVKGRFTISRDNAKNTVYLQMNSLKPEDTAVYYCAARTYRRPYYSWGQGTQVTVSS,polyreactivity (PSR sort gate),high polyreactivity
QVQHVESGGRLVQAGGSLRLSCAASGSTLDVYAMGWYRQAPGKERELVAAISWSVGSTYYADSVKGRFKISRDNAKNTVYLQMNRLKPEDTAVYYCAAEPYEYAYFGYDYWGQGTQVTVSS,polyreactivity (PSR sort gate),high polyreactivity
QVQLVESGGGLVQAGGSLRLSCAASGSIFQWYAMGWYRQAPGKERELVAAISFNGGITYYADSVKGRFTISRDIAKNTVYLQMNSLKPEDTAVYYCATLPGWGYAAYEYWGQGTQVTVSS,polyreactivity (PSR sort gate),low polyreactivity
QVQLVESGGGLVQAGGSLRLSCAASGRIFYRYARGWYRQAPGKEREFVAAITSGTSTNYADSVKGRFTISRDNAKNSLYVQRNSLKPEDTAVYYCATRYYWKYAEYDYWGQGTQVTVSS,polyreactivity (PSR sort gate),high polyreactivity
QVQLVESGGGLVQAGGSLRLICAASGRIFFHYAMGWYRQAPGKVRELVAVISSTGGITNYADSVKGRFTISRDNAKNTVYLQMNSLKPEDTAVYYCNTVPRPFERYGYWGQGTQVTVSS,polyreactivity (PSR sort gate),low polyreactivity
QVQLVESGGGLVQAGRSLRLSCAASGSPLYSYAMGWYRQAPGKEREFVAAITSDDGSTYYADSVKGRFTISRDNAKNTVYLPLTSLKPEDTAVYYCATAASVEYNYWGQCTQVTVSS,polyreactivity (PSR sort gate),low polyreactivity
QVQLVESGGGLVQAGGSLRLICAASGFIFRTNAMGWYRQAPGKQRELVAAISRSGNTYYADSVKGRFTISRDNAKNTVYLQMNSLKPEDTAVYYCAAQSVRWYSTFKYYYWGQGTQVTVSS,polyreactivity (PSR sort gate),high polyreactivity
QVQLVESGGGIVQAGGSLRLSCAASGRIFLRNAMGWYRQAPGYEREFVAAMRYSGGRTYYADSVKGRFTISRDNAKNTVYLQMISLNPEDTAVYYCAAEGSSRSSYRKYDYWGQGSQVTVSS,polyreactivity (PSR sort gate),high polyreactivity
QVQLVESGGGLVQAGGSLRLSCDASGSIYRLNAMGWYRQAPGKEMELVAAITWSDSSTYYADSVKGRFTISRDNAKYTVYLQMNSLKPEDTAVYYCAADPQSYKYDYWGQGTQVTVSS,polyreactivity (PSR sort gate),low polyreactivity
QVQLVESGGGLVQAGGSLRLSCAASGFTFSFYAIGLYRQATVKEREVVAAISWSGGSTYYADSVKGRFTISRDNAKNTVYLQMNSLKPEDTAVYFCAAKLLYGGRNGYWGQGTQVTVSS,polyreactivity (PSR sort gate),high polyreactivity
